How the values were obtained:
[1] = target: apo recombinant HRPII mutant with a 4 amino acid C terminus truncation (P. falciparum); assay: AUC
[2] = target: histidine-rich protein II (HRPII) purified from conditioned media of cultured P. falciparum (P. falciparum strain 3D7); assay: AUC

Row | Substance | stoichiometry N [1] | stoichiometry N [2]
1 | apo recombinant HRPII mutant with a 4 amino acid C terminus truncation (domain or fragment) | 3 | 
2 | histidine-rich protein II (HRPII) purified from conditioned media of cultured P. falciparum (natural protein) |  | 14

Source: PMC10293821
